Experimental data from article PMC10040874.

Key:
[1] = target: Drosophila melanogaster CNNM CBS-pair domain, GST-tagged (D. melanogaster); experiment: ITC; VP-ITC, 20 °C, 20 mM Hepes pH 7.5, 100 mM NaCl, 5 mM TCEP; GST-CBS-pairs titrated with PRL; single site-binding model
[2] = target: Naegleria fowleri CNNM CBS-pair domain (N. fowleri); experiment: ITC; conditions: enzyme

Sequence of Drosophila melanogaster CNNM CBS-pair domain, GST-tagged (D. melanogaster) (A0A0B7P9G0 362-515): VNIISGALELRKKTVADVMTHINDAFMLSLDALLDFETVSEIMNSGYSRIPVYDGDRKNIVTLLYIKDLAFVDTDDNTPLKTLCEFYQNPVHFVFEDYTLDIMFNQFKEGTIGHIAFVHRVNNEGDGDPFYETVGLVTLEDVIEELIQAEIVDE

Substance	fold decrease of affinity against wild type [1]	Ka [2]	Kd [2]
Drosophila melanogaster PRL R143E (from UniProt O61722 1-176) (enzyme)	20 fold		
Drosophila melanogaster PRL C109D (from UniProt O61722 1-176)	< 2 fold		
Naegleria fowleri PRL		688000 M⁻¹	1500 nM
